According to US20220315920:

Tested on: TfuCascade (Cse2 N23A, Cas7-NLS) + TfuCas3 (Type I-E) Cse2 N23A (Thermobifida fusca)
Assay: cell_activity
Details: PAM AAG; for activity (% editing (6-TG resistance)): HAP1 cells RNP

“AUGGACCGUCGAUGCCCUUCAGCUCGAUGCGGUUCACCAGGUGAGCCCCACGCACGUGGG / AAGTCGATGCCCTTCAGCTCGATGCGGTTCACCAG / CTGGTGAACCGCATCGAGCTGAAGGGCATCGACTT [crRNA GFP-G2 ; EGFP target G2 (PAM+protospacer)]” was tested. Which activity (% EGFP-negative cells) (hESC RNP) did it give?
The activity (% EGFP-negative cells) was 2.7.

Which activity (% tdTomato-negative cells) (hESC RNP) does the source give for “AUGGACCGCUGGACAUCACCUCCCACAACGAGGACUACACGUGAGCCCCACGCACGUGGG / AAGCTGGACATCACCTCCCACAACGAGGACTACAC / GTGTAGTCCTCGTTGTGGGAGGTGATGTCCAGCTT [crRNA tdTomato ; tdTomato target (PAM+protospacer)]” here?
The activity (% tdTomato-negative cells) was 2.7.

“AUGGACCGGCUACGUCCAGGAGCGCACCAUCUUCUUCAAGGUGAGCCCCACGCACGUGGG / AAGGCTACGTCCAGGAGCGCACCATCTTCTTCAAG / CTTGAAGAAGATGGTGCGCTCCTGGACGTAGCCTT [crRNA GFP-G1 ; EGFP target G1 (PAM+protospacer)]” was tested. Which activity (% EGFP-negative cells) (hESC RNP electroporation, 80 pmol Cascade, 20 pmol Cas3, 7.3% in FIG. 1D) did it give?
Its activity (% EGFP-negative cells) is 13.1.

Which activity (% editing (6-TG resistance)) does the source give for “AUGGACCGAAGCCGAGGCUCCCCCAGCGAAGCCCCUUUCCGUGAGCCCCACGCACGUGGG / AAGAAGCCGAGGCTCCCCCAGCGAAGCCCCTTTCC / GGAAAGGGGCTTCGCTGGGGGAGCCTCGGCTTCTT [crRNA HPRT-G2 ; HPRT target G2 (PAM+protospacer)]” here?
Its activity (% editing (6-TG resistance)) is 32.

How did the activity (% editing (6-TG resistance)) turn out when “AUGGACCGACCUUGCACUACCUGUGGCUUCCAUUUUCCUGGUGAGCCCCACGCACGUGGG / AAGACCTTGCACTACCTGTGGCTTCCATTTTCCTG / CAGGAAAATGGAAGCCACAGGTAGTGCAAGGTCTT [crRNA HPRT-G1 ; HPRT target G1 (PAM+protospacer)]” was run?
The activity (% editing (6-TG resistance)) was 67.
